The target in one experiment is human CD27-His. Kind of experiment: SPR. On the technique in general: SPR reads the build-up and loss of mass on a sensor chip optically.
The target in experiment [1] is T1, murine CD27 expressed on the cell surface of transfected HEK293 cells (murine, UniProt P41272 24-250).
T1 chain: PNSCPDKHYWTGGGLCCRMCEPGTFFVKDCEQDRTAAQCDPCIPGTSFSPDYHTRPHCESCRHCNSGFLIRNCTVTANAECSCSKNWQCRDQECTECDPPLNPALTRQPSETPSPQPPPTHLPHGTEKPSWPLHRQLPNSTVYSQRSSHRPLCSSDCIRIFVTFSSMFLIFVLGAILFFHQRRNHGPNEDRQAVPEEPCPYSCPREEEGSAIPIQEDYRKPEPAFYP
Kind of experiment: flow cytometry. On the technique in general: A flow cytometer gives signals particle by particle.

Experiment [2] has as its target T2, human CD27 expressed on the cell surface of transfected HEK293 cells (human, UniProt P26842 20-260). Kind of experiment: flow cytometry.
Experiment [3] has as its target T3, rhesus monkey CD27-Fc protein (rhesus monkey).
T3 chain: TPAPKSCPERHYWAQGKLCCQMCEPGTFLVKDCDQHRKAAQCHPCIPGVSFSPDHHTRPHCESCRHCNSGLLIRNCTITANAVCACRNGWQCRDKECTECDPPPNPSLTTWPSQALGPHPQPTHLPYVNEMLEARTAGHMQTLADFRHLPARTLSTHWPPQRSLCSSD
Kind of experiment: BLI. In general terms: BLI is a label-free optical method that tracks binding on a fibre tip over time.

Experiment [4] concerns the target T4, murine CD27-FcHis fusion protein (murine, UniProt P41272 24-182).
T4 chain: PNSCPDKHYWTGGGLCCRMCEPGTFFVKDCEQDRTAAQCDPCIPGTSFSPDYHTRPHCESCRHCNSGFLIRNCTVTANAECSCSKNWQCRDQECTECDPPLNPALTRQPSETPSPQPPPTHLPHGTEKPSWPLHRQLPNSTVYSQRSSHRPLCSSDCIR
Nature of the experiment: SPR.

Experiment [5] deals with T1, murine CD27 expressed on the cell …. Nature of the experiment: flow cytometry.
Experiment [6] concerns the target T2, human CD27 expressed on the cell …. Nature of the experiment: flow cytometry. The source holds these as a separate data set.
The target of experiment [7] is T5, human CD27-HisFc fusion protein (human, UniProt P26842 20-192).
T5 chain: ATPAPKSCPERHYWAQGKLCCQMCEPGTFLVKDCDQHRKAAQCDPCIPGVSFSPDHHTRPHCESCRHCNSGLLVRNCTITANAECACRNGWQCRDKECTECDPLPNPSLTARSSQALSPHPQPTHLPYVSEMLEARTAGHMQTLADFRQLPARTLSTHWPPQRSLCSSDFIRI
Kind of experiment: BLI.

Changes are numbered by the printed parent chain. Where two headings read alike, the source gives them in different places. Some results are limits rather than exact numbers.

B1: 1F5-IgG (antibody, V domains shown)
VH: QVQLVESGGGVVQPGRSLRLSCAASGFTFSSYDMHWVRQAPGKGLEWVAVIWYDGSNKYYADSVKGRFTISRDNSKNTLYLQMNSLRAEDTAVYYCARGSGNWGFFDYWGQGTLVTVSS
VL: DIQMTQSPSSLSASVGDRVTITCRASQGISRWLAWYQQKPEKAPKSLIYAASSLQSGVPSRFSGSGSGTDFTLTISSLQPEDFATYYCQQYNTYPRTFGQGTKVEIK
The term Kd denotes the constant that tells how readily two partners part at equilibrium. With B1, the affinity in the experiment with human CD27-His, expressed as Kd, was 1390 pM.

B2: reference antibody 1F5 (antibody, V domains shown)
VH: B1 VH
VL: B1 VL
B2: the dissociation constant (Kd) in experiment [1] worked out at 31000 pM; in experiment [2] it was 560 pM; in experiment [3], 2130 pM.

B3: anti-CD27 antibody mAb077 (IgG1 form) (antibody, V domains shown)
VH: EVQLVESGGGLVQPGGSLRLSCAASGFTFSGYGIHWVRQAPGKGLEWIGWINPNRGSTKYAQKFQGRVTISRDNSKNTLYLQLNSLRAEDTAVYYCARDPGYTWYFDVWGQGTLVTVSS
VL: DIQLTQSPSSLSASVGDRVTITCRASQDISSDLAWYQQKPGKAPKLLIYAASTLQSGVPSRFSGSGSGTDFTLTISSLQPEDFATYYCQQRDAWPPTFGQGTKVEIK
On to B3, for which the Kd in experiment [3] stood at 562 pM; in experiment [4], 30.4 pM.

B4: anti-CD27 antibody mAb076 (IgG1 form) (antibody, V domains shown)
VH: B3 VH with G31D, K59N, P100Y
VL: B3 VL with D32V, T53S, P96L
For the molecule B4, the Kd in experiment [5] is 300 pM; in experiment [6], 160 pM; in experiment [3], less than 1 pM; in experiment [4], 75.4 pM.

B5: mAb076-IgG (antibody, V domains shown)
VH: B3 VH with G31D, K59N, P100Y
VL: B3 VL with D32V, T53S, P96L
In the experiment with human CD27-His, B5 gave a Kd of 332 pM.

B6: mAb077 antibody Fab fragment with C-terminal histidine tag (Fab, V domains shown)
VH: B3 VH
VL: B3 VL
B6: the dissociation constant (Kd) in experiment [7] worked out at 4080 pM.

B7: mAb077-IgG (antibody, V domains shown)
VH: B3 VH
VL: B3 VL
For B7, the Kd with human CD27-His came out at 137 pM.

B8: mAb076 antibody Fab fragment with C-terminal histidine tag (Fab, V domains shown)
VH: B3 VH with G31D, K59N, P100Y
VL: B3 VL with D32V, T53S, P96L
In the case of B8, the affinity in experiment [7], expressed as Kd, was 1610 pM.

These data come from US20190225698A1 (published 2019).
